Data on one substance can be found in publication PMC5857711.

For the test, the target named is serotonin receptor 1b (5-HT1b), CFP- or YFP-tagged, for FRET (human) (UniProt P28222).
UniProt P28222, sequence (P28222 whole entry): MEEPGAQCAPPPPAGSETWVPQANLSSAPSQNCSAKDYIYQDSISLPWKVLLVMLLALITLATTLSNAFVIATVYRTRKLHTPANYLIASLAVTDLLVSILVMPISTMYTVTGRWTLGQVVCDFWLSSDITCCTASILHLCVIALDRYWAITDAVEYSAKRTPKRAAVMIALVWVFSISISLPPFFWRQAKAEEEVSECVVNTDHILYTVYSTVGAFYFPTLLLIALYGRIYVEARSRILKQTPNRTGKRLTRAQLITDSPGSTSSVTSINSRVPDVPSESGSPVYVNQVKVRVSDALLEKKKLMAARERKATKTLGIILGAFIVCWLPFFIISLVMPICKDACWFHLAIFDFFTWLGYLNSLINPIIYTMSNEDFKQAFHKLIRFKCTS

As for “βTAAR1 (TAAR1 with the first nine amino acids of the β2-adrenoreceptor at its N-terminus), CFP- or YFP-tagged, for FRET (from UniProt P07550 1-9)”, the Gi/o signaling: reduction of forskolin-induced cAMP (AlphaScreen) by 10 μM 5-HT in HEK293 co-expressing TAAR1 and 5-HT1b (50% for 5-HT1b alone) was found to be 40%.
